{"source": "patent US20050272077", "proteins": {"B1": {"name": "GST-MKK4 (protein)", "chain": "MQGKRKALKLNFANPPFKSTARFTLNPNPTGVQNPHIERLRTHSIESSGKLKISPEQHWDFTAEDLKDLGEIGRGAYGSVNKMVHKPSGQIMAVKRIRSTVDEKEQKQLLMDLDVVMRSSDCPYIVQFYGALFREGDCWICMELMSTSFDKFYKYVYSVLDDVIPEEILGKITLATVKALNHLKENLKIIHRDIKPSNILLDRSGNIKLCDFGISGQLVDSIAKTRDAGCRPYMAPERIDPSASRQGYDVRSDVWSLGITLYELATGRFPYPKWNSVFDQLTQVVKGDPPQLSNSEEREFSPSFINFVNLCLTKDESKRPKYKELLKHPFILMYEERAVEVACYVCKILDQMPATPSSPMYVD"}, "B2": {"name": "MKK6 (protein)", "chain": "MSQSKGKKRNPGLKIPKEAFEQPQTSSTPPRDLDSKACISIGNQNFEVKADDLEPIMELGRGAYGVVEKMRHVPSGQIMAVKRIRATVNSQEQKRLLMDLDISMRTVDCPFTVTFYGALFREGDVWICMELMDTSLDKFYKQVIDKGQTIPEDILGKIAVSIVKALEHLHSKLSVIHRDVKPSNVLINALGQVKMCDFGISGYLVDSVAKTIDAGCKPYMAPERINPELNQKGYSVKSDIWSLGITMIELAILRFPYDSWGTPFQQLKQVVEEPSPQLPADKFSAEFVDFTSQCLKKNSKERPTYPELMQHPFFTLHESKGTDVASFVKLILGD"}, "B3": {"name": "GST-JNK1 (protein)", "chain": "MSRSKRDNNFYSVEIGDSTFTVLKRYQNLKPIGSGAQGIVCAAYDAILERNVAIKKLSRPFQNQTHAKRAYRELVLMKCVNHKNIIGLLNVFTPQKSLEEFQDVYIVMELMDANLCQVIQMELDHERMSYLLYQMLCGIKHLHSAGIIHRDLKPSNIVVKSDCTLKILDFGLARTAGTSFMMTPYVVTRYYRAPEVILGMGYKENVDLWSVGCIMGEMVCHKILFPGRDYIDQWNKVIEQLGTPCPEFMKKLQPTVRTYVENRPKYAGYSFEKLFPDVLFPADSEHNKLKASQARDLLSKMLVIDASKRISVDEALQHPYINVWYDPSEAEAPPPKIPDKQLDEREHTIEEWKELIYKEVMDLEERTKNGVIRGQPSPLAQVQQ"}, "B4": {"name": "JNK1 from UV-irradiated cells (protein)", "chain": "MSRSKRDNNFYSVEIGDSTFTVLKRYQNLKPIGSGAQGIVCAAYDAILERNVAIKKLSRPFQNQTHAKRAYRELVLMKCVNHKNIIGLLNVFTPQKSLEEFQDVYIVMELMDANLCQVIQMELDHERMSYLLYQMLCGIKHLHSAGIIHRDLKPSNIVVKSDCTLKILDFGLARTAGTSFMMTPYVVTRYYRAPEVILGMGYKENVDLWSVGCIMGEMVCHKILFPGRDYIDQWNKVIEQLGTPCPEFMKKLQPTVRTYVENRPKYAGYSFEKLFPDVLFPADSEHNKLKASQARDLLSKMLVIDASKRISVDEALQHPYINVWYDPSEAEAPPPKIPDKQLDEREHTIEEWKELIYKEVMDLEERTKNGVIRGQPSPLAQVQQ"}, "B5": {"name": "55 kD JNK2 protein kinase (protein)", "chain": "MSDSKCDSQFYSVQVADSTFTVLKRYQQLKPIGSGAQGIVCAAFDTVLGINVAVKKLSRPFQNQTHAKRAYRELVLLKCVNHKNIISLLNVFTPQKTLEEFQDVYLVMELMDANLCQVIHMELDHERMSYLLYQMLCGIKHLHSAGIIHRDLKPSNIVVKSDCTLKILDFGLARTACTNFMMTPYVVTRYYRAPEVILGMGYKENVDIWSVGCIMGELVKGCVIFQGTDHIDQWNKVIEQLGTPSAEFMKKLQPTVRNYVENRPKYPGIKFEELFPDWIFPSESERDKIKTSQARDLLSKMLVIDPDKRISVDEALRHPYITVWYDPAEAEAPPPQIYDAQLEEREHAIEEWKELIYKEVMDWEERSKNGVVKDQPSDAAVSSNATPSQSSSINDISSMSTEQTLASDTDSSLDASTGPLEGCR"}, "B6": {"name": "Flag epitope-tagged JNK1 (protein)", "chain": "SRSKRDNNFYSVEIGDSTFTVLKRYQNLKPIGSGAQGIVCAAYDAILERNVAIKKLSRPFQNQTHAKRAYRELVLMKCVNHKNIIGLLNVFTPQKSLEEFQDVYIVMELMDANLCQVIQMELDHERMSYLLYQMLCGIKHLHSAGIIHRDLKPSNIVVKSDCTLKILDFGLARTAGTSFMMTPYVVTRYYRAPEVILGMGYKENVDLWSVGCIMGEMVCHKILFPGRDYIDQWNKVIEQLGTPCPEFMKKLQPTVRTYVENRPKYAGYSFEKLFPDVLFPADSEHNKLKASQARDLLSKMLVIDASKRISVDEALQHPYINVWYDPSEAEAPPPKIPDKQLDEREHTIEEWKELIYKEVMDLEERTKNGVIRGQPSPLAQVQQ"}}, "key": {"[1]": {"target": "mutated GST-JNK1 (Ala^183, Phe^185), P45983"}, "[2]": {"target": "GST-JNK1, P45983"}, "[3]": {"target": "GST-p38 MAP kinase (wild-type, TGY), Q16539", "sequence (Q16539 whole entry)": "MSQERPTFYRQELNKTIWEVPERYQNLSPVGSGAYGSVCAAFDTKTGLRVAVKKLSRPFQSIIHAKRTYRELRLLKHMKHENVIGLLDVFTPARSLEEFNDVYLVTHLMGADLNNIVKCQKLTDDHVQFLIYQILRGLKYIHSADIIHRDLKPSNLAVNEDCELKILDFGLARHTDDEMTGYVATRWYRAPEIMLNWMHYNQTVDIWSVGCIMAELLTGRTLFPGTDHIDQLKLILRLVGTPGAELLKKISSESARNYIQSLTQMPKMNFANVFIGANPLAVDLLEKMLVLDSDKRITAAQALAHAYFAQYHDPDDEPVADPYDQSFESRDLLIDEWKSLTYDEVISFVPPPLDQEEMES"}, "[4]": {"target": "GST-ERK2 [GST: P08515]", "sequence (P08515 whole entry, looked up)": "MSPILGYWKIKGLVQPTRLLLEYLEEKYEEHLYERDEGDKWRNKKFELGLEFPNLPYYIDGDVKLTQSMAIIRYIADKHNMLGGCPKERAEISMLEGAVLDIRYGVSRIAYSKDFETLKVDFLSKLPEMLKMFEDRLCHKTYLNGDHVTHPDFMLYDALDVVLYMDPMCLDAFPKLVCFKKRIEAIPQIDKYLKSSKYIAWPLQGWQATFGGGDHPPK"}, "[5]": {"target": "T1, GST-MKK4, P45985", "T1 chain": "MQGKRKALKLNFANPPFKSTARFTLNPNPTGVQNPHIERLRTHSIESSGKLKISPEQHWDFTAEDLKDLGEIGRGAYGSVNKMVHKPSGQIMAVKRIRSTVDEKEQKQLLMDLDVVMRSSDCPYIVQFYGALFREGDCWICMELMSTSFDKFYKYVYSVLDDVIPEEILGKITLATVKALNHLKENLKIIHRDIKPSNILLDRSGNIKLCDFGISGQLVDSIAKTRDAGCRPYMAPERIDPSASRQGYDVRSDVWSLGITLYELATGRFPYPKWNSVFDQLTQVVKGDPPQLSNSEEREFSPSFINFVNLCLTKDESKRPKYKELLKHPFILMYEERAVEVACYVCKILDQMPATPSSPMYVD"}, "[6]": {"target": "T2, GST-ATF2 fusion protein (residues 1-505), P15336", "T2 chain": "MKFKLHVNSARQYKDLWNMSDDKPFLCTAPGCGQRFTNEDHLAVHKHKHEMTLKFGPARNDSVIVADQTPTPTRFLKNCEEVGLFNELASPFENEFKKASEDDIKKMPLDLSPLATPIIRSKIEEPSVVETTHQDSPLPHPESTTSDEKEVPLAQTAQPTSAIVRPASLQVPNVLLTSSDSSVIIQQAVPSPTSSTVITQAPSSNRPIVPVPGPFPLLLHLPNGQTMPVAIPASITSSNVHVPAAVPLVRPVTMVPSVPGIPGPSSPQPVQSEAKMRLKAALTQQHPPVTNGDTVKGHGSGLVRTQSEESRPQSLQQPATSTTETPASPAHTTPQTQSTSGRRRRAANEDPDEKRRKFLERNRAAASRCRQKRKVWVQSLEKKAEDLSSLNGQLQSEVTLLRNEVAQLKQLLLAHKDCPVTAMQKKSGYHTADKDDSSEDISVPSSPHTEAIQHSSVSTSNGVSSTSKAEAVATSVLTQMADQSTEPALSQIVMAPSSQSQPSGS"}, "[7]": {"target": "T3, mutated ATF2 (Ala^69.71), P15336", "T3 chain": "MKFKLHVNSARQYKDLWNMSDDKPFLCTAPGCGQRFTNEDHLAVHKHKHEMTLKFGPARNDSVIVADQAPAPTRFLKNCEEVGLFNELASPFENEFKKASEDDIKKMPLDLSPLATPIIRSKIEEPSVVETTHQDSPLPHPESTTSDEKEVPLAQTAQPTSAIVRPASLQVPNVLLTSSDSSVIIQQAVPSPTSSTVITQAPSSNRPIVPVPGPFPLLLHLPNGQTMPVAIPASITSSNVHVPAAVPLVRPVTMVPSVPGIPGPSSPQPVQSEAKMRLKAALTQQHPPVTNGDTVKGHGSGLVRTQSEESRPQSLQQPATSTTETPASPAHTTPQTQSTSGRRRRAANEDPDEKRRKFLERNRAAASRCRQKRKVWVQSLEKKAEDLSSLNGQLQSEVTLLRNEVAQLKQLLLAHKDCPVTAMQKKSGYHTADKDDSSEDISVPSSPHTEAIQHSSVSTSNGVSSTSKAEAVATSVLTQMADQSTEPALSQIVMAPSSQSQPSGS"}, "[8]": {"target": "T4, GST-ATF2 fusion protein (residues 40-109), P15336", "T4 chain": "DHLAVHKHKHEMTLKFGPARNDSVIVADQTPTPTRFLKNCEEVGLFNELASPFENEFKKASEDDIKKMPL"}, "[9]": {"target": "T5, GST-ATF2 fusion protein (residues 20-109), P15336", "T5 chain": "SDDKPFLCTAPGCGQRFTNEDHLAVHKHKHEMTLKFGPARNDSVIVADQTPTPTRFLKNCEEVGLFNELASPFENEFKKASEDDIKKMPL"}, "[10]": {"target": "T6, GST-ATF2 fusion protein (residues 1-349), P15336", "T6 chain": "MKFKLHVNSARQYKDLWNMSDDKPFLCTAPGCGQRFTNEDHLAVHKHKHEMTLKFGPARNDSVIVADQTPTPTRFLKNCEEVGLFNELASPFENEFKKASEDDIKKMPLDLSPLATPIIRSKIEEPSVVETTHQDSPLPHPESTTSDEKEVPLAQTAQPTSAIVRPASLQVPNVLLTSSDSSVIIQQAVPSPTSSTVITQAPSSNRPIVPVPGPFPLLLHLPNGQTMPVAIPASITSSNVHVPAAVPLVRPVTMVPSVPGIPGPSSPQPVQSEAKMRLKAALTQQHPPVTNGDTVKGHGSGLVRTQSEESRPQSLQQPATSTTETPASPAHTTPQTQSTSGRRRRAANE"}, "[11]": {"target": "GST-ATF2 fusion protein (residues 1-109, activation domain) [GST: P08515]"}, "[12]": {"target": "T7, GST-ATF2 fusion protein (residues 60-109), P15336", "T7 chain": "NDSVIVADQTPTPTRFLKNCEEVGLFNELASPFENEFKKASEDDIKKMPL"}}, "data": [{"protein": "B1", "values": [{"measurement": "phosphorylation of ATF2 in a coupled kinase assay (activation of JNK1)", "setting": "[1]", "result": "MKK4 incubated with wild-type JNK1, but not mutated JNK1, resulted in increased phosphorylation of ATF2"}, {"measurement": "phosphorylation of ATF2 in a coupled kinase assay (activation of JNK1)", "setting": "[2]", "result": "ATF2 was phosphorylated in the presence of MKK4 and wild-type JNK1"}, {"measurement": "phosphorylation of the substrate protein (in vitro kinase assay, [γ-32P]ATP)", "setting": "[2]", "result": "JNK1 and p38 were phosphorylated"}, {"measurement": "phosphorylation of the substrate protein (in vitro kinase assay, [γ-32P]ATP)", "setting": "[3]", "result": "JNK1 and p38 were phosphorylated"}]}, {"protein": "B2", "values": [{"measurement": "phosphorylation of the substrate protein (in vitro kinase assay)", "setting": "[4]", "result": "shown to phosphorylate p38 MAP kinase on Thr^180 and Tyr^182, but not JNK1 or ERK2"}, {"measurement": "phosphorylation of the substrate protein (in vitro kinase assay)", "setting": "[2]", "result": "shown to phosphorylate p38 MAP kinase on Thr^180 and Tyr^182, but not JNK1 or ERK2"}, {"measurement": "phosphorylation of the substrate protein (in vitro kinase assay)", "setting": "[3]", "result": "shown to phosphorylate p38 MAP kinase on Thr^180 and Tyr^182, but not JNK1 or ERK2"}, {"measurement": "specific activity relative to MKK3", "setting": "[3]", "result": "The specific activity of MKK6 was approximately 300-fold greater than that of MKK3"}]}, {"protein": "B3", "values": [{"measurement": "phosphorylation of MKK4 (in vitro kinase assay, [γ-32P]ATP)", "setting": "[5]", "result": "as was MKK4 incubated with JNK1 and p38"}]}, {"protein": "B4", "values": [{"measurement": "in-gel protein kinase assay with GST-ATF2 (residues 1-505) polymerized in the gel", "setting": "[6]", "result": "46 kD and 55 kD protein kinases that phosphorylate ATF2 in extracts prepared from UV-irradiated cells. The 46 kD and 55 kD protein kinases were identified as JNK1 and JNK2, respectively"}, {"measurement": "phosphorylation of ATF2 by JNK1 (phosphopeptide mapping and mutational analysis)", "setting": "[7]", "result": "Phosphorylation of mutated ATF2 was not observed"}]}, {"protein": "B5", "values": [{"measurement": "in-gel protein kinase assay with GST-ATF2 (residues 1-505) polymerized in the gel", "setting": "[6]", "result": "46 kD and 55 kD protein kinases that phosphorylate ATF2 in extracts prepared from UV-irradiated cells. The 46 kD and 55 kD protein kinases were identified as JNK1 and JNK2, respectively"}]}, {"protein": "B6", "values": [{"measurement": "phosphorylation of the GST-ATF2 fusion protein (immunocomplex kinase assay)", "setting": "[8]", "result": "JNK1 phosphorylates GST-ATF2 fusion proteins containing residues 1-505, 1-349, 1-109, 20-109, and 40-109, but not 60-109"}, {"measurement": "phosphorylation of the GST-ATF2 fusion protein (immunocomplex kinase assay)", "setting": "[9]", "result": "JNK1 phosphorylates GST-ATF2 fusion proteins containing residues 1-505, 1-349, 1-109, 20-109, and 40-109, but not 60-109"}, {"measurement": "phosphorylation of the GST-ATF2 fusion protein (immunocomplex kinase assay)", "setting": "[10]", "result": "JNK1 phosphorylates GST-ATF2 fusion proteins containing residues 1-505, 1-349, 1-109, 20-109, and 40-109, but not 60-109"}, {"measurement": "phosphorylation of the GST-ATF2 fusion protein (immunocomplex kinase assay)", "setting": "[6]", "result": "JNK1 phosphorylates GST-ATF2 fusion proteins containing residues 1-505, 1-349, 1-109, 20-109, and 40-109, but not 60-109"}, {"measurement": "phosphorylation of GST-ATF2 (residues 1 to 109) (immunocomplex kinase assay, autoradiography)", "setting": "[11]", "result": "JNK1-transfected cells, but not mock-transfected cells, phosphorylated ATF2. JNK1 phosphorylation of ATF2 was greater in cells exposed to UV radiation"}, {"measurement": "phosphorylation of the GST-ATF2 fusion protein (immunocomplex kinase assay)", "setting": "[11]", "result": "JNK1 phosphorylates GST-ATF2 fusion proteins containing residues 1-505, 1-349, 1-109, 20-109, and 40-109, but not 60-109"}, {"measurement": "phosphorylation of the GST-ATF2 fusion protein (immunocomplex kinase assay)", "setting": "[12]", "result": "JNK1 phosphorylates GST-ATF2 fusion proteins containing residues 1-505, 1-349, 1-109, 20-109, and 40-109, but not 60-109"}]}]}
